The results in this text go back to PMC5653232 (Cell reports, 2017).

For one assay, the system named is Cy3-Cy5-H3K9Cme3-NCP. Kind of assay: FRET nucleosome unwrapping, Cy3-Cy5-H3K9Cme3-NCP. It is filed as biochemical, human.
The test system of a further assay is CHD3 PHD1/2. The assay is described as follows: Tryptophan fluorescence, linked CHD3 PHD1/2 with histone H3 peptides. Particulars: either peptide; apparent Kds measured by tryptophan fluorescence. It is filed as binding.
The target in another assay is H3K9Cme3-NCP. Kind of assay: Fluorescence polarization, CHD3 PHD1/2 with H3K9Cme3-NCP. The conditions noted are these: read-out: apparent dissociation constant Kd (H3K9Cme3-NCP), 5 nM nucleosomes, 15 mM Tris pH 7.5, 75 mM NaCl, 0.00625% Tween20, 3 mM DTT, three separate experiments. It is filed as binding, human.

B1: CHD3 PHD1/2: natively linked tandem PHD fingers of CHD3, construct PHD1/2 (373–508) (protein)
chain: GYETDHQDYCEVCQQGGEIILCDTCPRAYHLVCLDPELDRAPEGKWSCPHCEKEGVQWEAKEEEEEYEEEGEEEGEKEEEDDHMEYCRVCKDGGELLCCDACISSYHIHCLNPPLPDIPNGEWLCPRCTCPVLKGR
modifications: left off: GST, end not stated, cleaved
In the case of B1, the “change in FRET efficiency by CHD3 PHD1/2 without LA” value in the assay with Cy3-Cy5-H3K9Cme3-NCP (CHD3 PHD1/2 up to 300 µM) was “no measurable change in the FRET efficiency”. The “change in FRET efficiency by CHD3 PHD1/2 with LA” value with Cy3-Cy5-H3K9Cme3-NCP (LA at a concentration equivalent to the LA S1/2) is listed as “reduced substantially”. Besides, the “fold stronger binding of linked PHD1/2 than unlinked individual domains” value in the assay on CHD3 PHD1/2 is given as ~10^2 fold. Moreover, at H3K9Cme3-NCP, the Kd was 1400 nM.
